Tests used:
Assay in all cases: cell-based or functional assay
[1] = biological target: MTH1 target polypeptide with a 10 amino acid spacer and a carboxy terminal S-tag acceptor peptide
[2] = biological target: MTH1 target polypeptide with a 3 amino acid spacer and a carboxy terminal S-tag acceptor peptide
[3] = biological target: MTH1-S-tag fusion protein with no linker between MTH1 and the S-tag peptide

Sequence of His tagged RNase donor protein (S protein) (P61823 other isoform, or with tags, fused parts or gaps limits assumed): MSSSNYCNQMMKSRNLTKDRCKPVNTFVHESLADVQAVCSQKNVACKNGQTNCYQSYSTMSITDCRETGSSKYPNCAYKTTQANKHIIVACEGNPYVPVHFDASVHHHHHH

- S protein concentration at which the fluorescent signal starts to saturate [1]: 1 to 2 ng/µL
- S protein concentration at which the fluorescent signal starts to saturate [2]: 1 to 2 ng/µL
- S protein concentration at which the fluorescent signal starts to saturate [3]: 1 to 2 ng/µL
Substance: His tagged RNase donor protein (S protein) (from UniProt P61823 47-150)
